Patent US10815297B2, “Antagonists of IL17C for the treatment of inflammatory disorders” (MorphoSys AG, priority 2011, dated 2020)

How the values were obtained:
[1] = system: Balb/c N mice, IMQ induced psoriasis; assay: Imiquimod (IMQ) psoriasis-like mouse model; type: in vivo; conditions: 10 mg/kg i.p., 3 days before and at D0
Description: The pro-inflammatory function of IL17C in the skin was examined in a non-infectious cutaneous inflammation mouse model of psoriasis where topical TLR7-TLR8 agonist Imiquimod induces psoriatic skin lesions characterized by epidermal proliferation and leukocyte infiltration, which are dependent on pathogenic TH17 cytokines (Van der Fits et al., J of Immunol. 2009 May 1; 182(9):5836-45.). The role of IL17C in this particular model was recently documented (Ramirez-Carrozzi et al, Nat Immunol. 2011 12(12):1159-66) and a convincing genetic proof of the IL17C role in the disease model was provided with IL17C^−/− mice. […]
In order to induce a psoriatic-like response, a daily topical dose of 62.5 mg of Imiquimod cream on the shaved back and the right ear for 5 consecutive days (D0-D4), translating in a daily dose of 3.13 mg of the active compound. The control group was constituted with mice receiving the same quantity of Vaseline cream. […] Body weight was daily recorded. At necropsy and at the days indicated, the ears and the back skin thicknesses were measured using a micrometer (Mitutoyo). […] Spleen and thymus weight was measured.
Mice were randomly divided into equal groups (n=10). […] The control group was constituted with control mice receiving the same quantity of Vaseline. […]

[2] = system: BALB/c female mice, LPS-induced acute lung neutrophilia; assay: Intranasal instillation of LPS, mouse model of acute lung neutrophilia; type: in vivo; conditions: single treatment 5 mg/kg i.p. 24 hours before LPS instillation; BAL 24 hours after LPS
Experimental: Two independent studies were conducted with one negative mAb and two positive mAbs in the intranasal instillation of Lipopolysaccharide (LPS) mouse model of acute lung neutrophilia, a model which mimics some relevant aspects of COPD (Chronic Obstructive Pulmonary Disease). The effects were measured by Broncho Alveolar Lavage (BAL) inflammatory cell counting.
Several groups of mice were treated with different antibodies and Dexamethasone and compared to the mice subjected to LPS only.
BALB/c female mice from Harlan (France) were used in the study. Mice weight was around 20 g.
Mice were anesthetized by isoflurane inhalation. During the breathing, LPS was instilled intranasally. After 24 h, mice were anesthetized intra-peritoneally (IP) and Broncho Alveolar Lavage procedure was performed. Mice were anesthetized by injection of anaesthetic solution of 0.1 mL per 10 g of the mouse weight. The anaesthetic solution was composed of 18 ml 0.9% NaCl, 0.5 mL xylazine (5 mg/Kg) and 1.5 mL ketamine (75 mg/Kg).
The trachea was exposed through midline incision and canulated (with a mice catheter). BAL was performed twice using 1 mL of sterile PBS buffer. […] The cells were counted using a cell counter (Vet abc, France). […]
For all groups, BAL was performed 24 hours after LPS administration and cell counts were measured.
The results were analyzed using Student t-test. […]

B1: MOR12743: anti-mouse IL17C HuCAL antibody; CDRs SEQ ID NO: 31-36, VL 37, VH 38; human/mouse chimeric IgG2a (antibody, V domains shown)
VH: QVQLVQSGAEVKKPGASVKVSCKASGYTFTSNFIHWVRQAPGQGLEWMGWISPYNGDTNYAQKFQGRVTMTRDTSISTAYMELSRLRSEDTAVYYCARESVYYGSDYGYNGMDIWGQGTLVTVSS
VL: DIELTQPPSVSVSPGQTASITCSGDNLGEEYVSWYQQKPGQAPVLVIYDDTKRPSGIPERFSGSNSGNTATLTISGTQAEDEADYYCASWDLWSVEVFGGGTKLTVLGQ
modifications: mouse IgG2a constant regions; VH; VL
effect on epidermal thickness induced by IMQ in the mouse ear skin (histology) [1]: significant
inhibition of the recruitment of inflammatory cells into the BALF [2]: inhibited significantly
